The text below walks through data of the nanobody polyreactivity screen of Harvey et al. (2022).

This series is described as follows: yeast display, Sf9 membrane polyspecificity reagent, FACS + sequencing; frameworks hold sequencing errors. The essentials: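 A synthetic nanobody library was expressed on Saccharomyces cerevisiae BJ5465 by galactose induction for 36–48 hours. The library was stained for 1 hour at 4 °C with 10% biotinylated, detergent-solubilized Sf9 membrane reagent and enriched with streptavidin microbeads before FACS. Low and high (top ~1%) gates were set on anti-HA fluorescence for expression and streptavidin fluorescence for reagent binding, and each polyreactivity label reflects the gate of origin.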
With “QVQLVESGGGLVQAGGSLRLSCAASGSIFYYYAMGWYRQAPGKERELVASISRSGGSTFYADSVKGRFTISRDNAKNTVYLQMNSLKPEDTAVYYCATGWYYSPYNYWGQGTQVTVSS”, the “polyreactivity (PSR sort gate)” value is reported as “high polyreactivity”.

For “QVQLVESGGGLVQAGGSLRLSCAASGSIFYYYSMGWYRQAPGKERELVARITSGGTNYADSVKGRFTISRDNAKNTVYLQMNSLKPEDTAVYYCNADHSTWLYKRYDYWGQGTQVTVSS”, the “polyreactivity (PSR sort gate)” value is on record as “low polyreactivity”.

As to “QVQLVESGGGLVQAGGSLRLSCAASGSIFYYYTRGWSRQAPGKEMELVAAITSGGSTYYADSVKGRFTISRDNAKNTVYLQMNSLKPEDTAVYYCAAPIYYRLWKPGYEYWGQGTQVTVSS”, the “polyreactivity (PSR sort gate)” value was “high polyreactivity”.

Turning to “QVQLVESGGGLVQAGGSLRLSCAASGSIFYYYVMGWYRQAPGKEREFGAAISWGGDSTYYADSVKGRFTISRDNAMYTVYLQMNSLKPEDTAVYYCNADYPWSVVCYAYWGQGTQVTVSS”, the “polyreactivity (PSR sort gate)” value is “low polyreactivity”.

For the sequence “QVQLVESGGGLVQAGGSLRLSCAASGSIIARYAMGWYRQAPGKERELVAAITWSATSTYYADSVKGRFTISRDNAKNTVYLQMNSLKREDTAVYYCNAGASYFLVISQSRRDYWGQGTQVTVSS”, the “polyreactivity (PSR sort gate)” value is listed as “low polyreactivity”.

In the case of “QVQLVESGGGLVQAGGSLRLSCAASGSIIAYNAMGWYRQAPGKERELVAAISYSGDGTYYADSVKGRFTISRDNANNTVYLQMNSLKPEDTAVYFCDTQIYPLVFYQGDWNDYWGQGTQVTVSS”, the “polyreactivity (PSR sort gate)” value was “low polyreactivity”.

Consider “QVQLVESGGGLVQAGGSLRLSCAASGSIIDVYAMGWYRQAPGKERELVAAISTSGGSTFYADSVKGRFTISRDHAKNTVYLQMNSLKPEDTAVYYCNAAKYPDQWYDEYNYWGQGTQVTVSS”, for which the “polyreactivity (PSR sort gate)” value is recorded as “low polyreactivity”.

For the sequence “QVQLVESGGGLVQAGGSLRLSCAASGSIIFRYNMGWSRQAPGKERELVAAITTGGSTNYADSVKGRFTISRDNAKNTVSLQMNSLKPEDTAVYYCNRDNRRWTRAAVRVDFYYWGQGTQVTVSS”, the “polyreactivity (PSR sort gate)” value was “high polyreactivity”.

In the case of “QVQLVESGGGLVQAGGSLRLSCAASGSIIGFNGMGWYRQAPGKERELVSAISSTGGSTYYADSVKGRFTISRDNAKNTVYLQMNSLKPEDTAVYICNTDYSKTIGDGYAGFDYWGQGTQGTVSS”, the “polyreactivity (PSR sort gate)” value was “low polyreactivity”.

Turning to “QVQLVESGGGLVQAGGSLRLSCAASGSIIGRNVMGWYRQAPGKERELVAVITGSGGGTYYADSVKGRFTISRDNAKNTVYLQMNSLKPEDTAVYYCAARKRGTFTYDYWGQGTQVTVSS”, the “polyreactivity (PSR sort gate)” value is recorded as “high polyreactivity”.

As to “QVQLVESGGGLVQAGGSLRLSCAASGSIIGRYTMGWYRQAPGKERELVAAISRSGGSTYYADSVKGRFTISRDNSHNTVYLQMNSPKPEDTAVYYCAKRTYTPRVERLYSSYDYWGQGTQVTVSS”, the “polyreactivity (PSR sort gate)” value is “high polyreactivity”.

Take “QVQLVESGGGLVQAGGSLRLSCAASGSIIGSYVMGWYRQAPGKERELVATITNGGSTYYADSVKGRFTISRDNAKNTVYLQMNSLKPEDTAVYYCAADGRGDLYVWPGIGGDYWGQGTQVTVSS”: the “polyreactivity (PSR sort gate)” value is “low polyreactivity”.

Take “QVQLVESGGGLVQAGGSLRLSCAASGSIIGVNAMGWYRQAPGKERELVAAISSTGGSTYYADSVKGRFTISRDNAKNTVYLQMNSLKPEDTAVYYCAAVLIDPDSNLETGGIFDYWGQGTQVTVSS”: the “polyreactivity (PSR sort gate)” value was “low polyreactivity”.

Consider “QVQLVESGGGLVQAGGSLRLSCAASGSIIHNYDMGWYRPAPGTETEFVAAINWSGGNTHYADSVKGRFTISRDNAKNTFYLQMNSLKPEDTAVYYCAADSGFDTAPYDYWGQGTQVTVSS”, for which the “polyreactivity (PSR sort gate)” value was “low polyreactivity”.

As for “QVQLVESGGGLVQAGGSLRLSCAASGSIIHVNAMGCYRQAPGKERELVAGISDGGSTYYADSVKGRFTISRDNAKYTVYLQMNSLKPEDTAVYYCAAESEQWYSYVLSYDWEYDYWGQGTQVTVSS”, the “polyreactivity (PSR sort gate)” value is on record as “low polyreactivity”.

Regarding “QVQLVESGGGLVQAGGSLRLSCAASGSIIIGNAMGWYRPAPGKERELVAVINGSDGTTYYADSVKGRFTISRDTAKNTVYLQMNSLKPEDTAVYYCNADFIDPSVYDYNYWGQGTQVTVSS”, the “polyreactivity (PSR sort gate)” value is reported as “low polyreactivity”.
